In patent publication US20050249734A1:
Ends that are not written are not given here.

Assays:
[1] = target: somatostatin receptors on GH4 pituitary cells; assay: cell-based or functional assay
[2] = target: somatostatin receptors on GH4 pituitary cells; assay: displacement of 125I-somatostatin-14 from GH4 pituitary cells

| inhibition of TRH-stimulated cAMP in GH4 cells [1] [nM] | inhibition of VIP-stimulated cAMP in GH4 cells [1] [% at 10^-6 M] | Kd [2] [nM] | Molecule |
| --- | --- | --- | --- |
| 10 | 50 | 5 | somatostatin-14 peptide (from UniProt P61278 103-116) |
| 10 | 50 | 5 | PCKNFFWKTFSSCK-NH2 (cysteine pairing not given here) [cortistatin-14 peptide] |
